The text below walks through data of patent publication US20180237511A1 (Sanofi, published 2018).

In test [1] the target is T1, human beta-dystroglycan extracellular domain (soluble) (human, UniProt Q14118 654-749).
T1 construct: extracellular domain; The expression construct of soluble human beta-DG is not described (only the mouse one); also called hBeta-DG; hbeta-DG
T1 sequence (looked up): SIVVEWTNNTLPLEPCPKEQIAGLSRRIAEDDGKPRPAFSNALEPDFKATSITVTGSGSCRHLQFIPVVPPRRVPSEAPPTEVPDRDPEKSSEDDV
Nature of the test: dual binding sandwich ELISA on coated human beta-DG, read out through LG4/5-mFc (5 ug/mL). The procedure:
A dual binding sandwich ELISA was performed by coating Thermo Nunc Immobilized SA 96 well plates with either 2 ug/mL of biotinylated N′Avi-HPC4-human LG4/5 or biotinylated human-beta DG-HPC4-Avi-C′. After overnight incubation at 4° C., the plates were blocked with PBS+1% BSA+0.1% Tween for 1 hour at room temperature. After washing (BioTek ELx405 Select CW) with PBS, the trivalent or parental antibodies were added to the plate started at 8 ug/mL and a 2-fold dilution was performed across the plate, antibody was incubated for 1 hour at room temperature. After washing, the second antigen of beta-DG-mFc (FIG. 1A) or LG4/5-mFc was added at 5 ug/mL. Following the second antigen, a secondary antibody of donkey anti-mouse (Jackson ImmunoResearch) at a 1:2,000 dilution was added for 30 minutes. ABTS was resuspended in ABTS buffer (Roche) and added to the wells for detection. Resulting signal was read with the Perkin Elmer EnVision Multimode Plate Reader at 405 nm.
To show binding of the triAbs to both antigens, a dual binding sandwich ELISA was performed as described above using 2 ug/mL of biotinylated N′Avi-HPC4-human LG4/5 (FIG. 14A) or biotinylated human-beta DG-HPC4-Avi-C′ (FIG. 14B).
(An ELISA detects its analyte on a solid surface through an enzyme-linked reagent.)

Test [2] has as its target T1, human beta-dystroglycan extracellular …. The test is described as follows: SPR, antibody on Protein G chip, beta-DG in flow, 1:1 model (table title says laminin-2; paragraph 445 says human beta-DG). The method, then:
Data was evaluated with a 1:1 binding model using the BIAevaluation software.
SPR was used as described above to analyze the kinetics of triAb binding to laminin-2 (Table N) or beta-DG (Table O).
A general note: SPR reads the build-up and loss of mass on a sensor chip optically.

For test [3] the target is unchanged. The test is described as follows: SPR (Biacore) kinetics; mAb immobilized, hBeta-DG in flow.
Test [4] deals with T2, murine beta-dystroglycan extracellular domain (mbeta-DG ECD), HPC4 tagged (mouse, UniProt Q62165 652-746).
T2 construct: range 652-746; Made in E. coli as MBP fusion; MBP cleaved off with TEV protease; also called mbeta-DG-HPC4; murine beta-DG; not shown: C-terminal HPC4 tag
T2 sequence (looked up): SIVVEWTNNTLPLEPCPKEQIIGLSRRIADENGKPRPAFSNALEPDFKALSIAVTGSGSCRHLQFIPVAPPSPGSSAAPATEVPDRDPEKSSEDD
The test is described as follows: SPR (Biacore) kinetics; mAb immobilized, mBeta-DG in flow.

In test [5] the target is T2, murine beta-dystroglycan extracellular …. The test is described as follows: SPR (Biacore) kinetics, antibody as ligand on the chip, sample mBDg in flow, fit 1:1 Binding.
The target in test [6] is T3, Fabrazyme (agalsidase beta, Genzyme) (UniProt P06280 32-429).
T3 construct: Negative control protein on the dot blots
T3 sequence (looked up): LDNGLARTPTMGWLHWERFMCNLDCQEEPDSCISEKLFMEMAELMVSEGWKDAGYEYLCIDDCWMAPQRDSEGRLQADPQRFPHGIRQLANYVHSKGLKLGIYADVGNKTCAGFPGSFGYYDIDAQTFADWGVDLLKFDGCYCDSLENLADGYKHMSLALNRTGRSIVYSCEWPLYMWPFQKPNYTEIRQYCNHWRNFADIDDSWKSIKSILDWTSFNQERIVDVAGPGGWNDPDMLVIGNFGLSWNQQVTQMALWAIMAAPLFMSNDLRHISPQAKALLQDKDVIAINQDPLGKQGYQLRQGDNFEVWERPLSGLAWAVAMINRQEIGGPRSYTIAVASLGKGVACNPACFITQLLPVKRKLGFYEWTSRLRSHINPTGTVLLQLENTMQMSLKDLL
Nature of the test: dot blot: protein dotted on nitrocellulose (250 to .016 ng), probed with AS19.

As usually defined, the EC50 (read off the curve) is the concentration needed to bring the measured effect to its halfway point. A lower EC50 (read off the curve) goes with a more potent agent. As a reminder, the Kd is the concentration at which binding is half-saturated. Broadly, the koff is a measure of how fast the partners let go of each other. Higher therefore signals fast dissociation. The kon is the second-order rate constant of association. Higher therefore signals faster complex formation.

B1: triAb 3407 (bispecific antibody)
light 1: EIVLTQSPDFLSVTPKEKVTLTCRASQSISNNLHWYQQKSDQSPKLLIKYASQSISGIPSRFSGSGSGTDFTLTINSVEAEDAATYFCQQSKSWPRTFGGGTKLEIKDKTHTEIVLTQSPDFLSVTPKEKVTLTCRASQSISNNLHWYQQKSDQSPKLLIKYASQSISGIPSRFSGSGSGTDFTLTINSVEAEDAATYFCQQSKSWPRTFGGGTKLEIKDKTHTRTVAAPSVFIFPPSDEQLKSGTASVVCLLNNFYPREAKVQWKVDNALQSGNSQESVTEQDSKDSTYSLSSTLTLSKADYEKHKVYACEVTHQGLSSPVTKSFNRGEC
heavy 1: EVQLVESGGGLVKPGGSLRLSCAASGFTFSSYTMSWVRQAPGKGLEWVASISSSGSNTYYPDSVKGRFTISRDNAKNNLYLQMNSLRAEDTALYYCARFDYGSSLDSWGQGTLLTVSSDKTHTEVQLVESGGGLVKPGGSLRLSCAASGFTFSSYTMSWVRQAPGKGLEWVASISSSGSNTYYPDSVKGRFTISRDNAKNNLYLQMNSLRAEDTALYYCARFDYGSSLDSWGQGTLLTVSSDKTHTASTKGPSVFPLAPSSKSTSGGTAALGCLVKDYFPEPVTVSWNSGALTSGVHTFPAVLQSSGLYSLSSVVTVPSSSLGTQTYICNVNHKPSNTKVDKKVEPKSCDKTHTCPPCPAPELLGGPSVFLFPPKPKDTLYITREPEVTCVVVDVSHEDPEVKFNWYVDGVEVHNAKTKPREEQYNNASRVVSVLTVLHQDWLNGKEYKCKVSNKALPAPIEKTISKAKGQPREPQVYTLPPCRDELTKNQVSLWCLVKGFYPSDIAVEWESNGQPENNYKTTPPVLDSDGSFFLYSKLTVDKSRWQQGNVFSCSVMHEALHNHYTQKSLSLSPG
heavy 2: QVQLVQSGAEVVKPGSSVKVSCEASGFTFTDSVITWVRQRPGQGLEWIGEIYPGSGNFYYNEKFQGRVTITADKSTSTAYMELSSLRSEDTAVYFCAMRRSSWGQGTLVTVSSASTKGPSVFPLAPSSKSTSGGTAALGCLVKDYFPEPVTVSWNSGALTSGVHTFPAVLQSSGLYSLSSVVTVPSSSLGTQTYICNVNHKPSNTKVDKKVEPKSCDKTHTCPPCPAPELLGGPSVFLFPPKPKDTLYITREPEVTCVVVDVSHEDPEVKFNWYVDGVEVHNAKTKPREEQYNNASRVVSVLTVLHQDWLNGKEYKCKVSNKALPAPIEKTISKAKGQPREPQVCTLPPSRDELTKNQVSLSCAVKGFYPSDIAVEWESNGQPENNYKTTPPVLDSDGSFFLVSKLTVDKSRWQQGNVFSCSVMHEALHNRFTQKSLSLSPG
light 2: DVVMTQTPLSLSVTPGQPASISCKSSQTIVHSNSKTYLEWYLQKPGQSPQLLIYKVSSRFSGVPDRFSGSGSGTDFTLKISRVEAEDVGVYYCFQGSHVPLTFGQGTKLEIKRTVAAPSVFIFPPSDEQLKSGTASVVCLLNNFYPREAKVQWKVDNALQSGNSQESVTEQDSKDSTYSLSSTLTLSKADYEKHKVYACEVTHQGLSSPVTKSFNRGEC
notes: knob-in-hole, NNAS, YTE and RF variants
Consider B1, for which the “EC50 (read off the curve)” value in test [1] is approximately 0.1 µg/mL. For the same molecule, in test [2], the Kd was found to be 2.08 nM, the koff was 0.00326 s⁻¹ and the kon amounted to 1.57e+06 M⁻¹ s⁻¹.

B2: anti-beta-DG antibody derived from hybridoma clone AS19 (antibody, V domains shown)
VH: QVQLQQSGPELVKPGASVKMSCKASGFTFTDSVISWVKQRTGQGLEWIGEIYPGSGSIYYNEKFKGKATLTADKSSNTAYMQLRSLTSEDSAVYFCAMRRSYWGQGTLVTVSA
VL: DVLMTQTPLSLPVSLGDQASISCRSSQSIVHSNGNTYLEWYLQKPGQSPKLLIYKVSNRFSGVPDRFSGSGSGTDFTLKISRVEAEDLGVYYCFQGSHVPLTFGAGTKLELK
notes: Hybridoma monoclonal antibody (detected with anti-mouse IgG)
Take B2: the dissociation constant Kd in test [3] was 2.06 nM; in test [4], 3.38 nM. The molecule further returned a koff in test [5] of 0.000667 s⁻¹. The kon in test [5] is 110000 M⁻¹ s⁻¹. The binding result in test [6] is given as “no binding (tested: 250 ng)”.
